Reference: US9126993B2, “Glucosylceramide synthase inhibitors” (GENZYME CORPORATION, priority 2011, dated 2015)
Entries after “also recorded” stand apart in the source; their conditions may differ.

Experiments:
Fabry mice [1] = experiment: Substrate reduction therapy in Fabry mouse model: Gb3 and lyso-Gb3 levels; format: in vivo; settings: Fabry mice, in diet for 4 months starting at 8 months old; GZ 452 60 mg/kg/day, GZ 638 300 mg/kg/day
Procedure: In the following experiments, mice dosed with GCS inhibitors at either ˜60 mg/kg/day of (S)-Quinuclidin-3-yl(2-(2-(4-fluorophenyl)thiazol-4-yl)propan-2-yl)carbamate (S)-2-hydroxysuccinate salt (hereinafter “GZ 452”) or ˜300 mg/kg/day of (1R,2R)-Octanoic acid[2-(2′,3′-dihydro-benzo[1,4] dioxin-6′-yl)-2-hydroxy-1-pyrrolidin-1-ylmethyl-ethyl]-amide-L-tartaric acid salt (hereinafter “GZ 638”) as a component of the pelleted food diet provided ad libitum. Lipid analysis was by ESI/MS as described in Marshall et al., PLoS ONE 5:e15033 (2010). As discussed in further detail below, treatment started when the mice were 3, 8 or 12 months of age to test the efficacy at different disease severities. Blood and urine was collected monthly and periodic tissue harvests provided materials to evaluate efficacy of the therapy (Gb3 and lyso-Gb3 levels). […] As further discussed below, the efficacy of SMT was affected by the age of the mice at the start of treatment. Generally, the older the mouse, the higher the levels of Gb3 stored and thus a longer period of treatment was required in order to affect similar therapeutic benefit (see FIG. 4). The experiments and results are described further below.
In this experiment, Fabry mice were treated with GCS inhibitors in their diet for 4 months starting at 8 months old. […] Age-matched wild-type levels (WT) are also shown. […]

K14 mice = settings: neonatal (P1-P3) intracerebroventricular injections, previous experiments (Cabrera-Salazar et al. 2010); cited from earlier work
Fabry mice [2] = experiment: Combination therapy (ERT + SRT) in Fabry mouse model: plasma and urine Gb3 and lyso-Gb3; format: in vivo; settings: Fabry mice treated 2 months from 3 months of age; ERT 1 mg/kg iv every 2 months; SRT GZ 452 ~60 mg/kg/day in diet
Excerpt: Fabry mice were used to test the in vivo efficacy of combining enzyme replacement therapy with small molecule therapy in a concurrent treatment format. The study was designed to evaluate whether substrate inhibition (i.e. “substrate reduction therapy”) using the GZ 452 compound could reduce re-accumulation of the storage material Gb3 and lyso-Gb3. The study protocol called for three distinct treatment groups of 3 month old male Fabry mice (FIG. 6A). The first group received intravenous injections of alpha-galactosidase A enzyme (ERT) at 1 mg/kg to reduce Gb3 levels and was repeated every 2 months. The second group received the same enzyme injections as group 1, but also were dosed with GZ 452 at ˜60 mg/kg/day as a component of the pelleted diet. The third group received only the daily dosing of GZ 452 in their diet. A fourth group received no treatment to serve as vehicle controls and a fifth group of wild-type animals provided ‘normal’ Gb3 and lyso-Gb3 values. Monthly urine and blood collections and three monthly tissue harvests provide materials to evaluate relative efficacy of the therapies (FIG. 6A).
After 2 months (mice were 5 months old), plasma (FIG. 6B, panels A and C) and urine (FIG. 6B, panels B & D) were analyzed for Gb3 (FIG. 6B, panels A and B) and lyso-Gb3 (FIG. 6B, panels C and D). […] SMT therapy alone or in combination with ERT was also capable of affecting (reducing accumulation) of lyso-Gb3.

Fabry mice [3] = experiment: Thermal nociceptive response (55° C. hotplate) in Fabry mice; format: in vivo, mouse; settings: 10 month old Fabry mice after 7 months of treatment
Procedure: Three month old Fabry mice were treated with GZ 452 in their diet (SRT), αgal once every 2 months (ERT), or a combination of the 2 treatments (E+S), as described above. […]

(1R,2R)-Octanoic acid[2-(2′,3′-dihydro-benzo[1,4] dioxin-6′-yl)-2-hydroxy-1-pyrrolidin-1-ylmethyl-ethyl]-amide-L-tartaric acid salt [GZ 638, reference compound]
Gb3 in visceral tissue (kidney, heart) relative to the starting levels (Fabry mice [1]): effective at inhibiting further accumulation of tissue Gb3

B1: GC: Recombinant human glucocerebrosidase (rhGC), reformulated for ICV administration (protein, UniProt P04062 40-536, looked up)
Lysosomal acid …: ARPCIPKSFGYSSVVCVCNATYCDSFDPPTFPALGTFSRYESTRSGRRMELSMGPIQANHTGTGLLLTLQPEQKFQKVKGFGGAMTDAAALNILALSPPAQNLLLKSYFSEEGIGYNIIRVPMASCDFSIRTYTYADTPDDFQLHNFSLPEEDTKLKIPLIHRALQLAQRPVSLLASPWTSPTWLKTNGAVNGKGSLKGQPGDIYHQTWARYFVKFLDAYAEHKLQFWAVTAENEPSAGLLSGYPFQCLGFTPEHQRDFIARDLGPTLANSTHHNVRLLMLDDQRLLLPHWAKVVLTDPEAAKYVHGIAVHWYLDFLAPAKATLGETHRLFPNTMLFASEACVGSKFWEQSVRLGSWDRGMQYSHSIITNLLYHVVGWTDWNLALNPEGGPNWVRNFVDSPIIVDITKDTFYKQPMFYHLGHFSKFIPEGSQRVGLVASQKNDLDAVALMHPDGSAVVVVLNRSSKDVPLTIKDPAVGFLETISPGYSIHTYLWRRQ
median survival (K14 mice): 23 days

B2: ERT: alpha-galactosidase A enzyme (ERT), intravenous injections at 1 mg/kg every 2 months (protein, UniProt P06280 32-429, looked up)
Alpha-galactosidase A: LDNGLARTPTMGWLHWERFMCNLDCQEEPDSCISEKLFMEMAELMVSEGWKDAGYEYLCIDDCWMAPQRDSEGRLQADPQRFPHGIRQLANYVHSKGLKLGIYADVGNKTCAGFPGSFGYYDIDAQTFADWGVDLLKFDGCYCDSLENLADGYKHMSLALNRTGRSIVYSCEWPLYMWPFQKPNYTEIRQYCNHWRNFADIDDSWKSIKSILDWTSFNQERIVDVAGPGGWNDPDMLVIGNFGLSWNQQVTQMALWAIMAAPLFMSNDLRHISPQAKALLQDKDVIAINQDPLGKQGYQLRQGDNFEVWERPLSGLAWAVAMINRQEIGGPRSYTIAVASLGKGVACNPACFITQLLPVKRKLGFYEWTSRLRSHINPTGTVLLQLENTMQMSLKDLL
plasma Gb3 level (Fabry mice [2]): to a greater extent than SMT; also recorded: reduced
plasma lyso-Gb3 level (Fabry mice [2]): reduced
urine Gb3 level (Fabry mice [2]): unaffected
thermal nociceptive response time (latency) vs untreated (Fabry mice [3]): not significantly different to the untreated group
